# Measurements published in patent publication US8420776B2, “Ube2G2 binding domain in the ubiquitin ligase gp78 and methods of use thereof” (The United States of America, as Represented by the …, priority 2004, dated 2013).
# Changes are numbered by the printed parent chain.
# T1: Myc-Ube2G2 (Mus musculus, UniProt P60605)
# T1 construct: expressed in transfected cells; host or cells: HEK 293T
# T1 sequence (P60605 1-165): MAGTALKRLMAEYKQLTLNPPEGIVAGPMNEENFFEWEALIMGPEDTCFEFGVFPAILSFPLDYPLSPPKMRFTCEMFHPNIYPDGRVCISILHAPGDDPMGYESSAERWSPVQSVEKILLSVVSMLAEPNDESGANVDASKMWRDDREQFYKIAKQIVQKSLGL
# B1: Ube2G2: ubiquitin conjugating enzyme Ube2G2 expressed from co-transfected plasmid (protein, listed as Homo sapiens)
# chain: T1 sequence (P60605 1-165)
# B2: Cue-m1: GST fusion of complete C-terminal region of gp78 with MFP to GGR mutation of residues 467 to 469 (protein)
# chain: IRRHKNYLRVVGNMEARFAVATPEELAVNNDDCAICWDSMQAARKLPCGHLFHNSCLRSWLEQDTSCPTCRMSLNIADNNRVREEHQGENLDENLVPVAAAEGRPRLNQHNHFFHFDGSRIASWLPSFSVEVMHTTNILGITQASNSQLNAMAHQIQEGGRQVPYHLVLQDLQLTRSVEITTDNILEGRIQVPFPTQRSDSIRPALNSPVERPSSDQEEGETSAQTERVPLDLSPRLEETLDFGEVEVEPSEVEDFEARGSRFSKSADERQRMLVQRKDELLQQARKRFLNKSSEDDAASESFLPLEGASSDPVTLRRRMLAAAAERRLQKQQTS
# modifications: left off: a dimerising Fc or GST
# B3: Cue-m2: GST-gp78 fusion with VLQDL to RLQVD mutation of residues 476 to 480 (protein)
# chain: B2 chain with G159M, G160F, R161P, V168R, D171V, L172D
# modifications: left off: a dimerising Fc or GST
# B4: 435-507: GST fusion of amino acids 435-507 of gp78, the Cue domain region (protein)
# chain: SFSVEVMHTTNILGITQASNSQLNAMAHQIQEMFPQVPYHLVLQDLQLTRSVEITTDNILEGRIQVPFPTQRS
# modifications: left off: a dimerising Fc or GST
# notes: GST fusion of amino acids 435-507 of gp78, the Cue domain region
# B5: GFP-574-643: GFP fusion of a more extended region that includes the C-terminus of gp78, residues 574-643 (protein, listed as Homo sapiens)
# chain: SADERQRMLVQRKDELLQQARKRFLNKSSEDDAASESFLPLEGASSDPVTLRRRMLAAAAERRLQKQQTS
# B6: Flag-tagged gp78 residues 574-643: C-terminal region of gp78 fused to the eight amino acid Flag tag (protein)
# chain: B5 chain
# modifications: left off: small tags and cut ends
# notes: C-terminal region of gp78 fused to the eight amino acid Flag tag
# B7: gp78576: gp78 truncated after amino acid 576 of SEQ ID NO:2 (protein, listed as Homo sapiens)
# chain: MPLLFLERFPWPSLRTYTGLSGLALLGTIISAYRALSQPEAGPGEPDQLTASLQPEPPAPARPSAGGPRARDVAQYLLSDSLFVWVLVNTACCVLMLVAKLIQCIVFGPLRVSERQHLKDKFWNFIFYKFIFIFGVLNVQTVEEVVMWCLWFAGLVFLHLMVQLCKDRFEYLSFSPTTPMSSHGRVLSLLVAMLLSCCGLAAVCSITGYTHGMHTLAFMAAESLLVTVRTAHVILRYVIHLWDLNHEGTWEGKGTYVYYTDFVMELTLLSLDLMHHIHMLLFGNIWLSMASLVIFMQLRYLFHEVQRRIRRHKNYLRVVGNMEARFAVATPEELAVNNDDCAICWDSMQAARKLPCGHLFHNSCLRSWLEQDTSCPTCRMSLNIADNNRVREEHQGENLDENLVPVAAAEGRPRLNQHNHFFHFDGSRIASWLPSFSVEVMHTTNILGITQASNSQLNAMAHQIQEMFPQVPYHLVLQDLQLTRSVEITTDNILEGRIQVPFPTQRSDSIRPALNSPVERPSSDQEEGETSAQTERVPLDLSPRLEETLDFGEVEVEPSEVEDFEARGSRFSKSAD
# How the values were obtained:
# ERAD substrate CD3-δ = assay: CD3-δ level in co-transfected cells by immunoblotting; type: cell-based; conditions: for reversal of G2BD-induced CD3-δ stabilization by co-transfected Ube2G2: cells expressing Flag-tagged gp78 574-643, 2 or 4 μg Ube2G2 plasmid; for effect on CD3-δ level (stabilization): co-transfection with CD3-δ, immunoblot
# Experimental: (§1) Transfections of HT1080, NIH 3T3 and HEK 293T cells were carried out ˜24 hr after plating using Polyfect (Qiagen, Valencia, Calif.) and cells harvested after ˜48 hr. J558 cells were transfected by electroporation using Bio-rad GENE pulser II at settings of 250 v, 950uF. Vector without insert was used to equalize total plasmid. In most experiments 0.15 μg of pEGFP-C1 served as an internal control. For experiments not involving immunoprecipitation, 6×10^5 cells were plated in 6 well plates and cell lysis was with Mammalian Protein Extraction Reagent (Pierce). For immunoprecipitation, 2.4×10^6 cells were seeded in 100 mm dishes and cells were lysed in RIPA buffer (1×PBS, 1% Nonidet P40. 0.5% sodium deoxycholate, 0.1% SDS). Lysis buffers were supplemented with Protease Inhibitor Cocktail (Sigma) and 10 mM iodoacetamide. Supernatants were analyzed after a 10,000×g centrifugation using standard techniques for immunoprecipitation, SDS-PAGE, immunoblotting and ECL. Treatment of cells with MG132 (Sigma) was at 50 μM for eight hr. Cycloheximnide was used at 50 μg/ml. All cells were collected at the end of the six hr chase.
# FIG. 7 depicts the stabilization of CD3-δ protein in cells transfected with the G2BD, but not with the G2BD with amino acids 579-584 (of SEQ ID NO:2) mutated. HEK 293T cells were transfected with the ERAD substrate CD3-δ along with the indicated GFP fusions of gp78. The left and right sides are two separate experiments.
# To test this, GFP fusions of either a minimal E2 binding domain (GFP-574-611) or a more extended region that includes the C-terminus of gp78 (GFP-574-643) were evaluated (FIG. 21A). […] To assess this further, the C-terminal region of gp78 was fused to the eight amino acid Flag tag. […] Mdm2 is a RING finger E3 for both itself and p53 that is neither an ERAD substrate nor known to utilize Ube2G2 as an E2. […] To establish with certainty that the effect observed with expression of the Ube2G2 binding site is a consequence of binding endogenous E2, and not due to other unanticipated effects, cells were co-transfected with increasing amounts of Ube2G2 (FIG. 21C, lanes 3 and 4). […] These findings clearly establish that the isolated E2 binding site has the potential to markedly alter ERAD of CD3-δ. To ensure the effect observed was not peculiar to one substrate, TCR-α was evaluated (FIG. 21D).
# [1] = biological target: T2, lysine 48-linked (K48) tetra-ubiquitin (Homo sapiens, UniProt P0CG47); assay: Tetra-ubiquitin binding to GST fusions; conditions: anti-ubiquitin immunoblot
# T2 construct: 1 μg K48 tetra-ubiquitin produced as described (Piotrowski et al., 1997); made in house
# Experimental: GST fusions were purified from E. Coli. Binding was carried out using equi-molar amount of fusion proteins measured by Commassie blue staining. Generally, 20 picomoles/sample were used. In vitro translated E2 was generated by coupled transcription and translation using 35S methionine in either wheat germ or rabbit reticulocyte lysate. Binding assays using in vitro translated E2 was carried out by incubating GST protein pre-bound to Glutathione-sepharose 4B with […] of ^35S-methionine labeled E2 in binding buffer (25 mM Tris-HCl, pH 7.4; 50 mM NaCl, 5 mM DTT; and 0.5% NP-40) overnight at 4° C. Beads were washed with binding buffer and resolved by SDS-PAGE under reducing conditions. Analysis was by Storm PhosphoImager (Applied Biosystems, Foster City, Calif.). Direct binding assays used wild type His6-MmUbc7 (His6-Ube2G2) and Glutathione-sepharose bound GST fusions. Beadbound GST protein was incubated with 100 ng purified His6-MmUbc7 in binding buffer and washed and eluted as above. After transfer to Hybond-P (Amersham Biosciences) binding was assessed with anti-His6 followed by Enhanced Chemiluminescence ECL; Pierce). Ubiquitin binding studies were performed with binding and washing as above using 1 μg K48 tetra-ubiquitin produced as described (Piotrowski et al., 1997). Detection was by anti-ubiquitin immunoblotting.
# Myc-Ube2G2 = biological target: T1, Myc-Ube2G2; assay: Co-immunoprecipitation with co-expressed Myc-Ube2G2 in cells; type: cell-based; conditions: anti-Myc IP, anti-gp78 IB; MG132 8 hr
# Experimental: as §1
# FIG. 5 depicts the results of immunoprecipitation of Ube2G2 (MmUbc7) from HEK 293T cells co-transfected with a plasmid encoding myc-tagged MmUbc7/Ube2G2 together with s plasmid encoding various forms of gp78. HEK 293T cells were transfected with a plasmid encoding myc-tagged MmUbc7/Ube2G2 together with plasmids encoding various forms of gp78. After 48 hours, cells were harvested and co-immuntoprecipitated with an anti-Myc tage. Anti-gp78 was used for detection. “R2M” indicates a mutation of two crucial residues in the RING finger. “T” indicates C terminal truncations at the indicated amino acids. ΔB is the mutation indicated above in FIG. 4 in the context of the full length gp78 and “Cue12M” indicates mutations in the Cue domain of gp78.
# To confirm the significance of the Ube2G2 binding site in cells, a variety of mutations and truncations of full-length gp78 were tested for binding of co-expressed Myc-Ube2G2 (FIG. 19A). Cells were treated with the proteasome inhibitor MG132 in an attempt to equalize levels of the various forms of gp78.
molecule,measurement,setting,value
B1,reversal of G2BD-induced CD3-δ stabilization by co-transfected Ube2G2,ERAD substrate CD3-δ,dose-dependent reversal of CD3-δ stabilization
same,reversal of G2BD-induced CD3-δ stabilization by co-transfected Ube2G2,ERAD substrate CD3-δ; listed as Ube2G2/MmUbc7,reversed
B2,binding of K48 tetra-ubiquitin,[1],total loss of ubiquitin binding
B3,binding of K48 tetra-ubiquitin,[1],total loss of ubiquitin binding
B4,binding of K48 tetra-ubiquitin,[1],sufficient to bind tetra-ubiquitin
B5,effect on CD3-δ level (stabilization),ERAD substrate CD3-δ,dramatically stabilized CD3-δ
B6,effect on CD3-δ level (stabilization),ERAD substrate CD3-δ,marked stabilization of CD3-δ
B7,E2 association of full-length gp78 forms with co-expressed Myc-Ube2G2,Myc-Ube2G2,loss of E2 binding
